Experimental findings from US20160060325A1 (POMONA RICERCA S R L, published 2016) are described below.

Experiment [1] has as its target HA2 subunit of hemagglutinin (individual subunit, Western blot) (influenza A virus H1N1, strain A/PR/8/34, UniProt P03452 344-565). The experiment in a line: Western blot. In general terms: In western blotting, separated proteins are transferred to a membrane and probed.
Experiment [2] concerns the target hemagglutinin (HA) of influenza A virus H1N1, strain A/PR/8/34 (influenza A virus H1N1, strain A/PR/8/34, UniProt P03452 18-565). The experiment in a line: cell-based or functional assay.
Experiment [3] addresses hemagglutinin (HA) of influenza A virus H3N2, strain A/Victoria/3/75 (influenza A virus H3N2, strain …, UniProt P03435 17-567). As to the kind of experiment: cell-based or functional assay.
Experiment [4] deals with hemagglutinin (HA) of influenza A virus H3N2, strain A/PC/1/73 (influenza A virus H3N2, strain A/PC/1/73, UniProt Q1PUD9 17-566). As to the kind of experiment: cell-based or functional assay.
Sequence of hemagglutinin (HA) of influenza A virus H3N2, strain A/PC/1/73 (Q1PUD9 17-566): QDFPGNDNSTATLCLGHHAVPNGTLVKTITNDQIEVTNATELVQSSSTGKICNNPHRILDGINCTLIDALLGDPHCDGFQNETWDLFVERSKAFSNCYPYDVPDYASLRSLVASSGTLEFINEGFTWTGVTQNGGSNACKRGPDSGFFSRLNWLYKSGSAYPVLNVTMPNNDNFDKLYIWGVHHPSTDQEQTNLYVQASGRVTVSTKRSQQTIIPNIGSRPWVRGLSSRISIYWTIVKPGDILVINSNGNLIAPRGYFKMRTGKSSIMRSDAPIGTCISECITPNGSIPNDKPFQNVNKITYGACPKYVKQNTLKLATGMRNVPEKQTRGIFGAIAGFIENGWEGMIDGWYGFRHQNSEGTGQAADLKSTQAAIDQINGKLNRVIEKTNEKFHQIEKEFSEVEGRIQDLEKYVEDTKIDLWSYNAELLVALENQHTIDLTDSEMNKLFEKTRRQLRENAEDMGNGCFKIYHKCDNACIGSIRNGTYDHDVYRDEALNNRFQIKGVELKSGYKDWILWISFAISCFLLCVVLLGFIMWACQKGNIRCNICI
Experiment [5] deals with hemagglutinin (HA) of influenza A virus H1N1, strain A/Malaya/302/54 (influenza A virus H1N1, strain …). As to the kind of experiment: cell-based or functional assay.

Sequence of HA2 subunit of hemagglutinin (individual subunit, Western blot) (P03452 344-565 limits assumed): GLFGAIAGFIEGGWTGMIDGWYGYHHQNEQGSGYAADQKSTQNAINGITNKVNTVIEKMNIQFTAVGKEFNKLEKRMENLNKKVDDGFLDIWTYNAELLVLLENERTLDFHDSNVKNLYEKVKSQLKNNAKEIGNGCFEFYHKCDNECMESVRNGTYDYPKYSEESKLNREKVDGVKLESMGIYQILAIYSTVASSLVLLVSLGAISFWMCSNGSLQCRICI
Sequence of hemagglutinin (HA) of influenza A virus H3N2, strain A/Victoria/3/75 (P03435 17-567 limits assumed): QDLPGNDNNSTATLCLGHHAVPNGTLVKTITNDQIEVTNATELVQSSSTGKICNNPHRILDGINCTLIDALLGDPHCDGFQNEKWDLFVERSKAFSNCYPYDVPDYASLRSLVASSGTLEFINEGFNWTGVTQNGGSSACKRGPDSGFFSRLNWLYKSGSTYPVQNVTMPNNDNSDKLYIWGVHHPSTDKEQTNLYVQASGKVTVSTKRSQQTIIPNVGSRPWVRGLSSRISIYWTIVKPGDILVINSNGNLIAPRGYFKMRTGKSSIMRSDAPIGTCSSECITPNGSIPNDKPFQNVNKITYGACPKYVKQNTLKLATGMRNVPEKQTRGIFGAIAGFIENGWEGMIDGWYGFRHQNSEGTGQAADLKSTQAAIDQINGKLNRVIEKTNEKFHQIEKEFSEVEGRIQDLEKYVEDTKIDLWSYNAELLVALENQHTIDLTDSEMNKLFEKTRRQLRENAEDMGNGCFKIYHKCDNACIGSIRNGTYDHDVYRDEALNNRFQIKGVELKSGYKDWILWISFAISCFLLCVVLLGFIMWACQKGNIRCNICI
Sequence of hemagglutinin (HA) of influenza A virus H1N1, strain A/PR/8/34 (P03452 18-565 limits assumed): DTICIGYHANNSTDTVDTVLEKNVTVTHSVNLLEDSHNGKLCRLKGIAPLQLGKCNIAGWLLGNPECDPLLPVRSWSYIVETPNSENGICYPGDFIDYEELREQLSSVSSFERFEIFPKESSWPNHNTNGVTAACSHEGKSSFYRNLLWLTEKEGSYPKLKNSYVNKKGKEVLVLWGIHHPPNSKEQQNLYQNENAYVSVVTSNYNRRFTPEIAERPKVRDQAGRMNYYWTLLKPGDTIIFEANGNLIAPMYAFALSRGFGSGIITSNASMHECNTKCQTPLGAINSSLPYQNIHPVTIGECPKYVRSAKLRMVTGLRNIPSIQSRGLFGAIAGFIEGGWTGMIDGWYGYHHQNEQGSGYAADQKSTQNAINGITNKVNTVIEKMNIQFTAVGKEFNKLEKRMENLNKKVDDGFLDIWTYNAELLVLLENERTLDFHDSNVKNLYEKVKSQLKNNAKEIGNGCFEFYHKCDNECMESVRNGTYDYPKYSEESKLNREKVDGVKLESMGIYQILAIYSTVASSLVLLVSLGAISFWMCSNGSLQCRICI

B1: Fab28 (monoclonal antibody produced by clone INF28, human Fab fragment) (Fab, V domains shown)
VH: LEESGGGVVQPGRSLRLSCAASGFPFSSYGMHWVRQAPGKGLEWVAGVSYDGSYKYYADSVKGRFTISRDSSKSTLYLQMNSLRPEDTAVYYCARPSAIFGIYIILNGLDVWGQGTTVTVSS
VL: ELTQSPSSVSASVGDRVTITCRATQGISSWLAWYQQKPGKPPKLLIFGASSLQSGVPSRFSGSGSGTDFTLTISSLQPEDFATYFCQQAHSFPLTFGGGTKVEIK
As to B1, the binding result in experiment [1] is “no binding”. Also, the “IC50, neutralization by plaque reduction assay, H1N1 A/PR/8/34” value in experiment [2] was below 2.5 µg/mL. Moreover, the “IC50, neutralization by plaque reduction assay, H3N2 A/Victoria/3/75” value in experiment [3] was around 20 µg/mL. In addition, in experiment [4], the “IC50, neutralization by plaque reduction assay, H3N2 A/Port Chalmers/1/73” value is around 20 µg/mL. Moreover, the “IC50, neutralization by plaque reduction assay, H1N1 A/Malaya/302/54” value in experiment [5] is below 2.5 µg/mL.
